Experimental data reported in paper doi:10.1101/2021.05.23.445342 (bioRxiv, 2021).
One block for each binder: values may come before it.

Key:
[1] = biological target: T1, Calcineurin (human PPP3CA / PPP3R1 heterodimer) (human, UniProt Q08209 1-521; P63098 1-170); experiment: ITC; ITC200, 25 °C; 250 µM AKAP5c or AKAP5c_(ILVF->SA) injected into 18.32 µM Calcineurin; 10 mM Tris/HCl pH 7.4, 150 mM NaCl, 5 mM DTT; 1-site model (average of two repeats) and 2-site model with fixed N = 1 (global fit); conditions: both partners purified
T1 construct: Calcineurin A subunit, human PPP3CA, from pET15b CnA CnB; Calcineurin B subunit, human PPP3R1, from pET15b CnA CnB; also called Cn; PP2B; source: E. coli BL21(DE3) or BL21 Star (DE3), purified (ammonium sulphate, Ni-NTA, Resource Q, S200 SEC)

[2] = biological target: T1, Calcineurin (human PPP3CA / PPP3R1 …); experiment: SPR; Biacore T200, 25 °C; biotin-Cys-AKAP constructs immobilised on an SA chip, Calcineurin as analyte; 10 mM PIPES pH 6.5, 150 mM NaCl, 0.05% Tween20; apparent Kd from fit of the response at the end of association vs concentration ('steady-state'); conditions: both partners purified

Kd [1]: 1500 nM | stoichiometry N [1]: 0.99 AKAP5c:Cn
B1: AKAP5c_(ILVF->SA) (domain or fragment)
chain: VAEETKPKDTELSQESDFKENGITEEKSKSEESKRMEPIAIIITDTEISEFDVTKSKNVPKQASASAENEQVGVFANDNGFEDRTSEQYETASAETASSLVKNAAQSSAEQSANEMASDDNKINNLLQ
notes: AKAP5 (AKAP79), human, residues 300-427; all I, L, V and F residues of the three secondary sites mutated to S or A; PIAIIIT site present; Generated by gene synthesis (GeneArt); 15N-labelled for NMR, unlabelled for ITC; also called AKAP_(ILVF->SA); source: E. coli BL21(DE3) or BL21 Star (DE3), purified (heat step, Ni-NTA, Resource Q)

Kd [2]: ~600 nM
B2: Biotin-Cys-AKAP5c_(ILVF->SA) (domain or fragment)
chain: CVAEETKPKDTELSQESDFKENGITEEKSKSEESKRMEPIAIIITDTEISEFDVTKSKNVPKQASASAENEQVGVFANDNGFEDRTSEQYETASAETASSLVKNAAQSSAEQSANEMASDDNKINNLLQ
modifications: biotin (EZ-Link Maleimide-PEG2-Biotin) on the unique added N-terminal Cys
notes: unique Cys added immediately after the GS of the thrombin or TEV site; AKAP5 (AKAP79), human, residues 300-427; all I, L, V and F residues of the three secondary sites mutated to S or A; A GS remnant of the protease site probably precedes the Cys; also called AKAP5c_(ILVF->SA) (on the SPR surface); source: E. coli BL21(DE3) or BL21 Star (DE3), purified (heat step, Ni-NTA, Resource Q), …
